Test [1] concerns the target T1, Oncostatin M receptor on A375 or A549 cells (Homo sapiens, UniProt P40189+Q99650).
T1 construct: endogenous in cells; host or cells: A375 or A549 cells (intact monolayers)
T1 sequence (Q99650 28-979): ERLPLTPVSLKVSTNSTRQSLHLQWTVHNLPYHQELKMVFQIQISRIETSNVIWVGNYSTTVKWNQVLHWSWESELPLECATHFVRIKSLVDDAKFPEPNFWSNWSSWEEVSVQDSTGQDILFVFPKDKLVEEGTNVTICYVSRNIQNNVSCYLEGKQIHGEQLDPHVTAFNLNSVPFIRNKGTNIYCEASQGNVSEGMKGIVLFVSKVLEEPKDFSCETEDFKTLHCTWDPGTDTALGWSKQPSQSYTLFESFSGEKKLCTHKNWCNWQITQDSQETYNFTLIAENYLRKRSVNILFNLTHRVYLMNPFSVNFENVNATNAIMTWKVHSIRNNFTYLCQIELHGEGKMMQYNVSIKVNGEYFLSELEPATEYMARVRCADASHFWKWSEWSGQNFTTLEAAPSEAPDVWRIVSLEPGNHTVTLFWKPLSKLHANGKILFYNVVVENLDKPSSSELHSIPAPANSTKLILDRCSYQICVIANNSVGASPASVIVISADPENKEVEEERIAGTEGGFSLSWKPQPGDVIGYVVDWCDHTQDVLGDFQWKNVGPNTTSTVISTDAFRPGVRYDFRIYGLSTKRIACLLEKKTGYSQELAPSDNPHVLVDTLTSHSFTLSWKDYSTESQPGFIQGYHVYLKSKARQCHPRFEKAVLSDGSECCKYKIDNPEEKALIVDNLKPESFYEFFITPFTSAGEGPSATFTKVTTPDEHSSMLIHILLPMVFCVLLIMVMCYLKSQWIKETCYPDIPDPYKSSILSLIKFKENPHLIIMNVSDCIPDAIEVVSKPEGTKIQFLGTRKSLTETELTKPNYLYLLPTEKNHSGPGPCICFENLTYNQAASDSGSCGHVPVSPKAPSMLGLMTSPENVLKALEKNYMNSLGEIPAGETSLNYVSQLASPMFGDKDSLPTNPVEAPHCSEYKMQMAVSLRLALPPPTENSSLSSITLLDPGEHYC
T1 sequence (P40189 23-918): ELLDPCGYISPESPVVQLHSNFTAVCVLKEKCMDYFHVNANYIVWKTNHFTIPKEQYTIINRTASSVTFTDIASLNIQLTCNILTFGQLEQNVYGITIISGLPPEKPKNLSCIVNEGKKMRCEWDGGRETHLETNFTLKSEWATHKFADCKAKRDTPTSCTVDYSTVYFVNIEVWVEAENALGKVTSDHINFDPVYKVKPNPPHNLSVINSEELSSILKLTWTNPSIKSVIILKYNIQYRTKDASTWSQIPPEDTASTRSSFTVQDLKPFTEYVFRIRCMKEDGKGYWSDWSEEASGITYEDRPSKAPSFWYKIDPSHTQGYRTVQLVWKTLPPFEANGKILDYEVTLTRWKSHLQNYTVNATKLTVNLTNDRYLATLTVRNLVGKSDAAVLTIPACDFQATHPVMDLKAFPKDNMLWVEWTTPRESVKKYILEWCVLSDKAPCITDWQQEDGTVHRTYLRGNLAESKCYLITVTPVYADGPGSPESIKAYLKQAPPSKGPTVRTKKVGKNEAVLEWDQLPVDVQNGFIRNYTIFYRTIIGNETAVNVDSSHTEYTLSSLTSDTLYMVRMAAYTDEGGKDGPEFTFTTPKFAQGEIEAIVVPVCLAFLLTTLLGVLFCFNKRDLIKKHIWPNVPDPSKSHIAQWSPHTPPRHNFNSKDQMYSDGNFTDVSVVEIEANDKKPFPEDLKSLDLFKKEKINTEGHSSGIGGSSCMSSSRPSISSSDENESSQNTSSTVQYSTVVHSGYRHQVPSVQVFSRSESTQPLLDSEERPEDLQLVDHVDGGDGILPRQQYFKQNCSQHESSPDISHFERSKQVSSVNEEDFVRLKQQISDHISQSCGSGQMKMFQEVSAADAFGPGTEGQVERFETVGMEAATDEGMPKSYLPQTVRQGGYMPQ
The experiment in a line: Specificity of Oncostatin M receptor: competition for binding of 125I-Oncostatin M. The following applies: competitor 20 μg/ml; 125I-Oncostatin M 30-50 ng/ml. As for the experimental part: The cell line of interest was plated in 48-well plates at a density of 2×10^5 cells/well and maintained at 37° C. for 16-24 hours before initiation of the assay. Cell monolayers were then washed once with Binding buffer (Linsley et al., Biochemistry (1986) 25:2978-2986). To measure total binding, ^125 I-Oncostatin M was added at concentrations ranging from 0.5-100 ng/ml. To measure non-specific binding, unlabeled Oncostatin M was added simultaneously with the ^125 I-Oncostatin M to replicate plates at a concentration 20- to 100-fold higher than the concentration of ^125 I-Oncostatin M. Binding was allowed to proceed for 2-5 hours at 23°, then the monolayers were washed four times with Binding Buffer, cell-bound radioactivity was solubilized with 1N NaOH and was counted in a gamma counter. Specific binding was calculated by subtracting the non-specific binding from total binding. The dissociation constant (Kd) and binding capacity was determined by Scatchard analysis (Scatchard, Ann. N.Y. Acad. Sci. (1949) 51:660).
The specificity of the Oncostatin M receptor was determined by evaluating the ability of several other polypeptide growth factors to compete for binding of ^125 I-Oncostatin M (at 30-50 ng/ml) to A375 or A549 cells.

In the next test the test system is MCF-7 breast tumor cells. The test can be described thus: Inhibition of 3H-TdR incorporation, Oncostatin M and TNF-α. In kind it is cell-based, human. The settings on record: MCF-7 Cells. Here is the method:
(§1) The assays were performed in 96 flat well plates (Costar 3596). Human melanoma cells (A375) (3×10^3 /100 μl) or cells from another cell line of interest were at an appropriate cell density used. Cells in 100 μl growth medium were placed in each well. Three hours later, 100 μl of test sample in growth medium was added to each well. Plates were incubated at 37° C. for 3 days. Then 25 μl (0.5 μCi) of a solution of ^3 H-thymidine (specific activity 27 μCi/μg) was added to each well for the final 6 hours of incubation. The cells were then transferred to glass filter strips using a multiwell harvester (PHD Cell Harvester, Cambridge Technology, Inc.). The filters were transferred to scintillation vials. Two ml of scintillation fluid (ScientiVerse II, Fisher Scientific Co.) was added and the samples counted in a scintillation counter to quantitate ^3 H-thymidine incorporation.
Inhibition of ^3 H-TdR incorporation into A375 cells and MCF-7 cells were compared using the assay described in Example 1B, above. The cells were treated with either Oncostatin M alone, TNF-α (Amgen Biologicals, human recombinant TNF-α) alone, or with a combination of Oncostatin M and TNF-α.

In a further test the test system is A375 melanoma cells. The experiment in a line: Cell growth modulatory assay using 3H-thymidine incorporation into DNA (GIA). The settings on record: A375 Cells. In kind it is cell-based, human. More on the design: Observed % Inhibition of 3H-TdR Incorporation: concentration or dose not given beside the values. As for the experimental part:
as §1
On the technique in general: Dividing cells build labelled thymidine or BrdU into new DNA.

In another test the test system is A375 cells. The experiment in a line: Growth inhibition assay (A375 proliferation; synergy tests). In kind it is cell-based, human. The settings on record: growth inhibition assays. As for the experimental part: A375 melanoma cells (4×10^3 cells/50 μl), Mv1Lu mink lung epithelial cells (3.5×10^3 cells/50 μl), or other cell line of interest at an appropriate cell density were subcultured for four hours on flat-bottomed 96-well tissue culture plates (Costar 3596, Cambridge, Mass.) in growth medium comprising Dulbecco's modified Eagle's medium (DMEM), supplemented with 10% heat-in-activated fetal bovine serum, and P/S. Test samples to be assayed for growth inhibition were diluted in growth medium and assayed in triplicate with 50 μl of the diluted sample added to each well. The cells were incubated for 72 hours at 37° C.
The growth inhibitory activity of highly purified TGF-β1, recombinant gamma-interferon (rIFN-γ), and Oncostatin M on A375 cells was determined, and possible synergy between TGF-β1 and Oncostatin M, TGF-β1 and rIFN-γ, and Oncostatin M and rIFN-γ in inhibiting A375 proliferation was tested. […] is expressed in units of Mv1Lu growth inhibitory activity, rIFN-γ in units of anti-viral activity and Oncostatin M in units of A375 growth inhibitory activity. Concentrations of TGF-β1 (1-30 U/ml) and Oncostatin M (0.5-10 U/ml) were chosen which caused either no or only minimal growth inhibition when tested individually.

A further test concerns Mouse L929 cells. The experiment in a line: Effect on mouse L929 cells. It counts as cell-based. The settings on record: up to 1000 GIA units/ml. Here is the method: (§2) The ability of PBL-derived Oncostatin M to affect replication of a variety of cells was also investigated. Mouse L929 cells were insenstive to PBL-derived Oncostatin M using up to 1000 GIA units/ml. Growth of human fibroblasts, WI26, was stimulated by treatment with 1000 GIA units/ml. Normal human T-lymphocyte proliferation at 72 hours post mitogenesis was not affected by up to 500 GIA units/ml.

Test [2] deals with Normal human T-lymphocyte. The experiment in a line: Normal human T-lymphocyte proliferation post mitogenesis. In kind it is cell-based. The settings on record: 72 hours post mitogenesis, up to 500 GIA units/ml. Here is the method:
as §2

Another test concerns WI26 fibroblasts. The experiment in a line: Cell growth modulatory assay using 3H-thymidine incorporation into DNA (GIA). In kind it is cell-based, human. The settings on record: 1000 GIA units/ml. Here is the method:
as §1
Human tumor cells (A375 melanoma cells, A549 lung cancer cells, HBT10 neuroblastoma cells, and SK-MEL28 melanoma cells) were seeded at 3×10^3 cells/well and normal fibroblasts (WI26 cells and WI38 cells) at 1.5×10^3 cells/well in 96-well plates. Various concentrations of purified Oncostatin M, obtained from the fraction from the C18^3 column with peak antiproliferative activity against A375 cells were used. The assay was performed as described in Example 1B above.

In the case of TNF-α, the “Inhibitory activity towards binding of 125I-Oncostatin M” value in test [1] is given as “None of these showed significant inhibitory activity”. Also, the entries for the “Observed % Inhibition of 3H-TdR Incorporation” value in the test with MCF-7 breast tumor cells and with A375 melanoma cells were 30% and 7%, respectively.

B1: ^125 I-Oncostatin M: Oncostatin M purified from TPA-treated U937 cells and radiolabeled with 125I by the iodogen method (protein, UniProt P13725 26-221, looked up)
Oncostatin-M: AAIGSCSKEYRVLLGQLQKQTDLMQDTSRLLDPYIRIQGLDVPKLREHCRERPGAFPSEETLRGLGRRGFLQTLNATLGCVLHRLADLEQRLPKAQDLERSGLNIEDLEKLQMARPNILGLRNNIYCMAQLLDNSDTAEPTKAGRGASQPPTPTPASDAFQRKLEGCRFLHGYHRFMHSVGRVFSKWGESPNRSRR
modifications: 125I label
notes: Oncostatin M purified from TPA-treated U937 cells and radiolabeled with 125I by the iodogen method
Turning to B1, in the test on A375 cells, the “Original biological activity retained after iodination” value is given as “approximately 85%”.

B2: PBL-derived Oncostatin M: Oncostatin M isolated from conditioned medium of activated human T-lymphoblasts, approximately 80% pure (protein, UniProt P13725 26-221, looked up)
Oncostatin-M: B1 Oncostatin-M
Regarding B2, in the test with Mouse L929 cells, the “Replication of mouse L929 cells” value is “insenstive”. Further, in test [2], the “Normal human T-lymphocyte proliferation” value is reported as “not affected”. In the test with WI26 fibroblasts, the “Growth of human fibroblasts WI26” value is given as “stimulated”.

Values taken from patent US5451506A, “Oncostatin M and novel compositions having anti-neoplastic activity” (Oncogen Limited Partnership, priority 1993, dated 1995).
